Experimental findings from paper PMC8486322 (Cell, 2019) are described below.

In this experiment the target is eRF3 fused with maltose binding protein (MBP-eRF3) ( (the printed NM_002094.3 is …, UniProt P15170-3 1-637)). The experiment in a line: pull-down.

B1: SFL fused with glutathione S-transferase (GST-SFL) (natural protein)
chain: not shown
With B1, the binding result was “binds”.
